Changes are numbered by the printed parent chain. Blank lines part the entries; values can stand above or below the binder they belong to.
What was measured:
[1] = biological target: T1, Fusion protein of extracellular domain of human TIGIT and His-tag (human TIGIT ECD-his) (human); assay: BIAcore; reference itself
T1 chain: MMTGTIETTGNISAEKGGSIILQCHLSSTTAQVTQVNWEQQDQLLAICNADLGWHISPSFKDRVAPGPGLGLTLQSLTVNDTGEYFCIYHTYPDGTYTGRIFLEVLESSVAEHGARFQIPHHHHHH

[2] = biological target: T1, Fusion protein of extracellular domain …; assay: BIAcore
[3] = biological target: T2, Full-length human TIGIT on CHO-K1 cells (CHO-K1 human TIGIT) (human, UniProt Q495A1 22-244); assay: cell binding, CHO-K1 human TIGIT high expression strain
T2 construct: NCBI XP_024309156.1; the entry includes the signal peptide (limits not recoverable); The strain (high, medium, low) is named under assay; also called high expression strain 1D2; medium expression strain 2D10
T2 sequence: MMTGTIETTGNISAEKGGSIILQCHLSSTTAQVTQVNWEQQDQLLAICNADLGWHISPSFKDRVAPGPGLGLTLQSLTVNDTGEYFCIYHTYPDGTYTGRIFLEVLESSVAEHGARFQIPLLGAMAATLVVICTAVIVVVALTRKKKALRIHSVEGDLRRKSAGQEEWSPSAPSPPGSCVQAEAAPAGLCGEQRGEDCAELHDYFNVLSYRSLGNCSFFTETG
Outline: (§1)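 Binding was measured by flow cytometry after a 60-minute, 4° C incubation of the antibodies with 2×10⁵ CHO-K1 cells displaying full-length human or cynomolgus monkey TIGIT. Antibody titration: 12 points, threefold serial dilution from 80 nM, in 1% BSA-PBS.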

[4] = biological target: T3, Full-length cynomolgus monkey TIGIT on CHO-K1 cells (CHO-K1 cynomolgus monkey TIGIT) (cynomolgus monkey); assay: cell binding, CHO-K1 cynomolgus monkey TIGIT
T3 construct: NCBI XP_015300911.1
T3 sequence (chain, as listed by the source limits assumed): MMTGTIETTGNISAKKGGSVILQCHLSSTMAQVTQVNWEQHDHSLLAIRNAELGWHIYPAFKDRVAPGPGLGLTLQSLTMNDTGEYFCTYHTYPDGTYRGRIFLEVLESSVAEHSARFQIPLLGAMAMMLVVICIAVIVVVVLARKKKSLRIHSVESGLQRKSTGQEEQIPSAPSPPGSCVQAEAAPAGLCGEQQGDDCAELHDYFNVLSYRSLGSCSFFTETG
Outline: as §1

[5] = biological target: T4, Fusion protein of extracellular domain of human TIGIT and human IgG1 Fc fragment (human TIGIT ECD-hFc) (human); assay: blocking of TIGIT ECD-hFc binding to CHO-K1 CD155 cells
T4 construct: The entry includes the signal peptide (limits not recoverable) and the human IgG1 Fc
T4 sequence (chain, as listed by the source limits assumed): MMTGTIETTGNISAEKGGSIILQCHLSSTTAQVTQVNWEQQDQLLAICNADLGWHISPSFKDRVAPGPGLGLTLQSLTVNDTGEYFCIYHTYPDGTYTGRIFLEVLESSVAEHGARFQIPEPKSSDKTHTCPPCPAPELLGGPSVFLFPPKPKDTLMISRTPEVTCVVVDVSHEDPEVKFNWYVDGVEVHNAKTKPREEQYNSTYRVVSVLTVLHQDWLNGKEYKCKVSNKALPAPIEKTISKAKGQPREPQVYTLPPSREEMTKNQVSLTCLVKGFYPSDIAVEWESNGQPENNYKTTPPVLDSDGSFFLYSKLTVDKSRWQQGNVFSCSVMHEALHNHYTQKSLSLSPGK
Outline: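 The inhibition curves from which IC50 was calculated were generated by cell-based ELISA. Fixed CHO-K1 CD155 cells, blocked with 5% skim milk-PBS, were incubated at 37° C for 1.5-2 h with antibodies that had been premixed for 0.5 h with human TIGIT ECD-hFc at a working concentration of 30 ng/mL. Detection of bound TIGIT used HRP secondary antibody at 1:5000 for 1 h at 37° C, followed by TMB and reading as OD450 nm.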

[6] = biological target: T5, Fusion protein of extracellular domain of cynomolgus monkey TIGIT and mouse IgG2a Fc fragment (cynomolgus … (cynomolgus monkey)); assay: ELISA, cynomolgus monkey TIGIT ECD-mFc
T5 construct: The entry includes the signal peptide (limits not recoverable) and the mouse IgG2a Fc
T5 sequence (chain, as listed by the source limits assumed): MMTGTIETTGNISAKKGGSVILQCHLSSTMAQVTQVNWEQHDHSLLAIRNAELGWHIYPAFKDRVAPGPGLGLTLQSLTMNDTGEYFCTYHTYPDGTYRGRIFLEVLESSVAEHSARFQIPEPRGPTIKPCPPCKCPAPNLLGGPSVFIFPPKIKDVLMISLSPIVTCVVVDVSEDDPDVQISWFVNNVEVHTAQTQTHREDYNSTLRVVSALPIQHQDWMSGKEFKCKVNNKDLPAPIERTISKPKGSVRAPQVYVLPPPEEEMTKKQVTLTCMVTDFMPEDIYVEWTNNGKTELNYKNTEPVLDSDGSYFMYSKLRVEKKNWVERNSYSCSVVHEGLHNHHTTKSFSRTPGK
Outline: (§2)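 Plates blocked with 5% skim milk-PBS at 37° C for 2-4 h. Test antibodies applied as a 12-point 3-fold series from 13 nM for 1.5-2 h at 37° C. Read-out: HRP secondary (1:5000, 1 h, 37° C), TMB colour for 7-10 min at room temperature, acid stop, absorbance at OD450 nm.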

[7] = biological target: T6, Fusion protein of extracellular domain of human TIGIT and mouse IgG2a Fc fragment (human TIGIT ECD-mFc) (human); assay: ELISA, human TIGIT ECD-mFc
T6 construct: The entry includes the signal peptide (limits not recoverable) and the mouse IgG2a Fc
T6 chain: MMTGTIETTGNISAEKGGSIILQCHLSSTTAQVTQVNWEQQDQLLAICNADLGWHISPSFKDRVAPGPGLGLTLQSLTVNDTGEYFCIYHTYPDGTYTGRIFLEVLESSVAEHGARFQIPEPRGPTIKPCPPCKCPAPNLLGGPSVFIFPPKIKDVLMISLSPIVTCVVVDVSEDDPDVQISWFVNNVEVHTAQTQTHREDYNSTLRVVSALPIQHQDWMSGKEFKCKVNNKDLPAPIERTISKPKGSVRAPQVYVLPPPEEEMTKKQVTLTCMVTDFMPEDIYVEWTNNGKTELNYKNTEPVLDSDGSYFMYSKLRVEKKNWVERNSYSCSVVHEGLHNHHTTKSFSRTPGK
Outline: as §2

[8] = biological target: T1, Fusion protein of extracellular domain …; assay: BIAcore; KD ratio, by the numbers to TIGIT-005-H2L1 of r33

Fold change vs chimeric antibodies (KD) [1]: 1 fold
Kd [2]: 0.0774 nM
koff [2]: 0.000162 s⁻¹
kon [2]: 2.09e+06 M⁻¹ s⁻¹
EC50 [3]: 0.0299 nM
EC50 [4]: 0.15 nM
IC50 [5]: 0.579 nM
EC50 [6]: 0.0258 nM
EC50 [7]: 0.0152 nM
B1: TIGIT-CHI-006 (antibody, V domains shown)
VH: EVQLQESGPGLAKPSQTPSLTCSVTGYSMTSDYWNWIRKFPGNKLEYMGYISYSGRTYYNPSLKSRISITRDTSKNQFYLQLNSVTTEDTATYYCARGDYSNYGGAMYDWGQGTSVTVSS
VL: DIVMTQSHKFMSTSVGDRVSITCRASQGVSTTIAWYQQKPGQSPKLLIYSASYRYTGVPDRFTGSGSGTDFTFTISGVQAEDLAVYYCQQYYSSPFTFGGGTKLEIK
notes: Human-mouse chimeric antibody

Fold change vs chimeric antibodies (KD) [1]: 1 fold
Kd [2]: 0.098 nM
koff [2]: 0.000145 s⁻¹
kon [2]: 1.48e+06 M⁻¹ s⁻¹
EC50 [3]: 0.033 nM
EC50 [4]: 0.0741 nM
IC50 [5]: 0.637 nM
EC50 [6]: 0.0184 nM
EC50 [7]: 0.0159 nM
B2: TIGIT-CHI-070 (antibody, V domains shown)
VH: QVQLQQPGTELVKPGASVKLSCRASGYTFTNYYMHWVKQRPGRGLEWIGRIDPDSGGSKYNEKFKSKATLTVDKLSSTAYMQLSSLTSEDSAVYYCAREGHYGFYSDYWGQGTTLTVSS
VL: DIQMTQSPASLSASVGETVTITCRVSENIYSYLAWYQQKQGKSPQLLVYNAKTLAEGVPSRFSGSGSGTQFSLKINSLQPEDFGNYYCQHHYGNPLTFGAGTKLDLK
notes: Human-mouse chimeric antibody

Kd [2]: 3.71 nM
koff [2]: 0.0105 s⁻¹
kon [2]: 2.83e+06 M⁻¹ s⁻¹
EC50 [3]: 0.0129 nM
EC50 [4]: 0.0561 nM
Fold change vs chimeric antibodies (KD) [8]: 50 fold
IC50 [5]: 0.717 nM
EC50 [6]: 0.0357 nM
EC50 [7]: 0.0289 nM
B3: TIGIT-005-H2L1a (antibody, V domains shown)
VH: EVQLVQSGAEVKKPGASVKVSCKASGYAFTNYLIEWVRQAPGQRLEWMGVINPGSGGTNYKEKFKGRVTITADKSSSTAYMELSSLRSEDTAVYYCARGEYFFFDYWGQGTTVTVSS
VL: DIVMTQSPDSLAVSLGERATINCKASQHVSQGVAWYQHKPGQSPKLLIYSASYRYTGVPDRFSGSGSGTDFTLTISSLQAEDVAVYYCQQHYNTPHTFGGGTKVEIK
notes: Humanized anti-TIGIT antibody with NG-site mutation in VL

Kd [2]: 0.734 nM
koff [2]: 0.00248 s⁻¹
kon [2]: 3.38e+06 M⁻¹ s⁻¹
EC50 [3]: 0.0279 nM
EC50 [4]: 0.0368 nM
Fold change vs chimeric antibodies (KD) [8]: 9.89 fold
IC50 [5]: 0.358 nM
EC50 [6]: 0.032 nM
EC50 [7]: 0.0238 nM
B4: TIGIT-005-H2L1b (antibody, V domains shown)
VH: B3 VH
VL: B3 VL with Q31T
notes: as for B3

Kd [2]: 0.184 nM
koff [2]: 0.000459 s⁻¹
kon [2]: 2.49e+06 M⁻¹ s⁻¹
EC50 [3]: 0.0246 nM
EC50 [4]: 0.0673 nM
Fold change vs chimeric antibodies (KD) [8]: 2.48 fold
IC50 [5]: 0.347 nM
EC50 [6]: 0.0296 nM
EC50 [7]: 0.0268 nM
B5: TIGIT-005-H2L1c (antibody, V domains shown)
VH: B3 VH
VL: B3 VL with Q31D
notes: as for B3

Reference: patent US20240343803A1 (SHANDONG SIMCERE BIOPHARMACEUTICAL, published 2024)
